Reference: US20140120095A1 (Boehringer Ingelheim, published 2014)

Tests used:
[1] = biological target: T1, human DLL4 overexpressed on cells (human, UniProt Q9NR61 27-685); assay: cell-based or functional assay
recombinant human DLL4 [2] = biological target: T2, recombinant human DLL4 (human, UniProt Q9NR61 25-522); assay: cell-based or functional assay
recombinant human DLL4 [3] = biological target: T2, recombinant human DLL4; assay: binding ELISA, coated rhDLL4
Procedure: (§1) In order to determine cross-reactivity to mouse DII4 a binding ELISA is performed. […] Wells are blocked with a casein solution (1% in PBS). VHHs are applied as dilution series and binding is detected using a mouse anti-myc (Roche) and an anti-mouse-AP conjugate (Sigma, St Louis, Mo., USA) (FIG. 7 A-H). As reference, binding to human DII4 is measured.

recombinant human DLL4 [4] = biological target: T2, recombinant human DLL4; assay: Biacore off-rate, periplasmic extract
[5] = biological target: T1, human DLL4 overexpressed on cells; assay: competitive FMAT, hNotch1-Fc on CHO-hDLL4
[6] = biological target: T1, human DLL4 overexpressed on cells; assay: FACS titration on HEK293-hDLL4 cells, MCF
Procedure: (§2) In order to determine the cynomologus cross-reactivity of the VHHs, a FACS binding experiment is performed. Cynomolgus DII4 expressing HEK293 cells (transient or stable transfection) are used for a titration binding experiment of the VHHs. After a 30 minutes incubation on ice, all samples are washed and detection is performed by applying anti-c-myc˜Alexa647 (Santa Cruz Biotechnology, Santa Cruz, Calif., USA). Human and mouse DII4 overexpressing HEK293 cells are taken as reference. The mean MCF value is determined on the FACS Array and used for calculation of the EC₅₀ value (see FIG. 9 A-E).

[7] = biological target: T3, cynomolgus DLL4 overexpressed on cells (cynomolgus, UniProt Q9NR61 27-685 (human entry)); assay: FACS titration on HEK293-cDLL4 cells, MCF
T3 construct: also called cyno DII4; cDLL4
T3 chain: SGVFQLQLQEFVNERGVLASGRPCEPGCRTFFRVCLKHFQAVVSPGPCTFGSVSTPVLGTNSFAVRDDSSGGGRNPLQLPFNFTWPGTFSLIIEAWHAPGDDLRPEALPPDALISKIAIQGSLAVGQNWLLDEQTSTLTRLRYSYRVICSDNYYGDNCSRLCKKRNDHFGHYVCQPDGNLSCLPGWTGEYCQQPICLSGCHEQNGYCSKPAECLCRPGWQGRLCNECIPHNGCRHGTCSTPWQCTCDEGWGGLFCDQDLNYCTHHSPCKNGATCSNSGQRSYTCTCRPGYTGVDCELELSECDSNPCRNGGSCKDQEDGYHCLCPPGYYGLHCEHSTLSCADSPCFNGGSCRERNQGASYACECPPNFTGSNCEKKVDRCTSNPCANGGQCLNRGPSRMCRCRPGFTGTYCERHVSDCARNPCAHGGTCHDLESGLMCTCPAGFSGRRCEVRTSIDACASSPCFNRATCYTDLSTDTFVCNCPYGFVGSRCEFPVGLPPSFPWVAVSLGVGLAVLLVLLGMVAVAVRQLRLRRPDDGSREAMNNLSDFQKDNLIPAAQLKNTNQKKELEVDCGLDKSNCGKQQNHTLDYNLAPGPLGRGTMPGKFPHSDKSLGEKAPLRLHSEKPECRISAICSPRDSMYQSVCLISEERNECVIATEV
Procedure: as §2

recombinant human DLL4 [8] = biological target: T2, recombinant human DLL4; assay: competition ELISA, biot-hDLL4 to coated hNotch1-Fc
Excerpt: Residual binding of biotinylated human DII4 is detected using horseradish peroxidase (HRP) conjugated extravidin (Sigma, St. Louis, Mo., USA) (FIG. 3 A-C). Human DII4 is biotinylated as described above.

[9] = biological target: T1, human DLL4 overexpressed on cells; assay: FMAT, labelled hNotch1-Fc on CHO-hDLL4, periplasmic extract
Excerpt: (§3) All calculations are based on the FL1_total signal which comprises the average of the fluorescence per well times the number of counts per well.

[10] = biological target: T4, mouse DLL4 overexpressed on cells (mouse, UniProt Q9JI71 27-686); assay: FMAT, labelled hNotch1-Fc on CHO-mDLL4, periplasmic extract
T4 construct: whole, on cells; also called CHO-mDLL4; CHO-mDII4
Excerpt: as §3
Target sequence in this assay (Q9JI71 27-686): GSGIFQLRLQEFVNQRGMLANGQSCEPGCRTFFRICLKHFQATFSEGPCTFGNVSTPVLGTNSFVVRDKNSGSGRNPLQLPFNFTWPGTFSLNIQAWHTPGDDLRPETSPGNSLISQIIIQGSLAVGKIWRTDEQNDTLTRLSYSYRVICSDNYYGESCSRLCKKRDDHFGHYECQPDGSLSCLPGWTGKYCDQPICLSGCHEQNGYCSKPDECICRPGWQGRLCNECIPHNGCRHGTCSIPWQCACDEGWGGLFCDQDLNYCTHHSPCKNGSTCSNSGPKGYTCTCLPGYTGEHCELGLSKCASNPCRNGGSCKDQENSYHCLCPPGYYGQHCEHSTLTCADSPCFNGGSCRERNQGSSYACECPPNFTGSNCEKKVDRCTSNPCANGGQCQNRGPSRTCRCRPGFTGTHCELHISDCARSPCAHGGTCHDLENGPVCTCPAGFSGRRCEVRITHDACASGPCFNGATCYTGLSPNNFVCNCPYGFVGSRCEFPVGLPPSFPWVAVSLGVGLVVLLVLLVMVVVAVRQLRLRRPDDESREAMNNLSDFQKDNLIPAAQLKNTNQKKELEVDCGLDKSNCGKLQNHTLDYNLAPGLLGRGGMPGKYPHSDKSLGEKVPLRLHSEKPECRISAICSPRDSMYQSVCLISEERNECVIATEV

recombinant mouse DLL4 = biological target: T5, recombinant mouse DLL4 (mouse, UniProt Q9JI71 27-532); assay: binding ELISA on coated recombinant mouse DLL4, OD 405 nm
T5 construct: extracellular domain; also called rmDLL4; mDLL4
T5 sequence (Q9JI71 27-532): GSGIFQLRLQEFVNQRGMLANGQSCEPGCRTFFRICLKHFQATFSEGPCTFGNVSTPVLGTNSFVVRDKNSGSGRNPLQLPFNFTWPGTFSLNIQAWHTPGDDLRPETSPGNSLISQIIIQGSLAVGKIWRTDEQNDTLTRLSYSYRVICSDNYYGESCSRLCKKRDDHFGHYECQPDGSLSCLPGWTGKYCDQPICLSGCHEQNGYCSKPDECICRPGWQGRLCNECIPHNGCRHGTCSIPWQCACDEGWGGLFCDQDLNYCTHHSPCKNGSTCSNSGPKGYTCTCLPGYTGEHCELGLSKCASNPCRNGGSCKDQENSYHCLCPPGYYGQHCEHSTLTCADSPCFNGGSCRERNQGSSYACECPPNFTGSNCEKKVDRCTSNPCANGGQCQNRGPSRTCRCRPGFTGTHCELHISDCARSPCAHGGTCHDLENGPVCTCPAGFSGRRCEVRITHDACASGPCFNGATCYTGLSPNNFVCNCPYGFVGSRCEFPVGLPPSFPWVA
Procedure: as §1

human DLL1 = biological target: T6, human DLL1 (human, UniProt O00548 18-545, limits assumed); assay: binding ELISA on coated recombinant human DLL1, OD 405 nm
T6 construct: also called hDLL1
T6 sequence (looked up): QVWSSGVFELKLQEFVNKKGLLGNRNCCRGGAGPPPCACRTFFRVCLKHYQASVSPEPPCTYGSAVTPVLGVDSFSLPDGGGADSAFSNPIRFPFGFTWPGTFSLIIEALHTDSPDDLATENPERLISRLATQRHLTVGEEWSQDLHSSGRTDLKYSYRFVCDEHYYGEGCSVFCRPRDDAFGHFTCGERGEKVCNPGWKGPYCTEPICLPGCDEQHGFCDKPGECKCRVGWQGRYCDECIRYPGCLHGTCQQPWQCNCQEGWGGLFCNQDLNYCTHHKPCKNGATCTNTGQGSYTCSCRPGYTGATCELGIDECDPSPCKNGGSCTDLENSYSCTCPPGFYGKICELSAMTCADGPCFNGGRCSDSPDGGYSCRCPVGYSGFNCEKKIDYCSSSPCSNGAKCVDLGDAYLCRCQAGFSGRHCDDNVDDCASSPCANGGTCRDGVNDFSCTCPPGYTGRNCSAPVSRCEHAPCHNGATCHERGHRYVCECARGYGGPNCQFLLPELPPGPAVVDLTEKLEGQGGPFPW
How it was run: (§4)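 Plates coated overnight at 4° C with 1 μg/mL ligand, blocked with 1% casein in PBS. VHH dilution series applied; bound VHH detected via mouse anti-myc then anti-mouse-AP conjugate.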

human Jagged-1 = biological target: T7, human Jagged-1 (human, UniProt P78504 34-1067, limits assumed); assay: binding ELISA on coated recombinant human Jagged-1, OD 405 nm
T7 construct: also called hJagged-1; hJAG1
How it was run: as §4

recombinant human DLL4 [11] = biological target: T2, recombinant human DLL4; assay: SPR Biacore T100, hDLL4 on chip; heterogeneous binding curve, no 1:1 fit
Procedure: Kinetic analysis to determine the affinity of the DII4-VHH interaction is performed by Surface Plasmon Resonance (SPR) on a Biacore T100 instrument. […] Purified VHHs or Fab fragment are injected for 2 minutes at different concentrations (between 10 and 300 nM) and allowed to dissociate for 20 min at a flow rate of 45 μl/min. Between sample injections, the surfaces are regenerated with 10 mM glycine pH1.5 and 100 mM HCl. HBS-N (Hepes buffer pH7.4) is used as running buffer. If possible, data are evaluated by fitting a 1:1 interaction model (Langmuir binding) onto the binding curves. The affinity constant KD is calculated from resulting association and dissociation rate constants (kₐ) and […].

[12] = biological target: T4, mouse DLL4 overexpressed on cells; assay: FMAT competition on CHO-mDLL4 cells; blocked ligand Alexa-647 labelled hNotch1-Fc
[13] = biological target: T8, human DLL4 expressed on cells (CHO-hDLL4; HEK293-hDLL4) (human, UniProt Q9NR61 27-685); assay: FMAT competition on CHO-hDLL4 cells; unlabelled rhNotch1-Fc competes with Alexa-647 labelled hNotch1-Fc
T8 construct: full length human DLL4 overexpressed on CHO cells (FMAT, FACS) or HEK293 cells (reporter assay)

[14] = biological target: T9, mouse DLL4 expressed on CHO cells (mouse, UniProt Q9JI71 27-686); assay: FMAT competition on CHO-mDLL4 cells; unlabelled rhNotch1-Fc competes with Alexa-647 labelled hNotch1-Fc
T9 construct: whole, on cells; also called mDLL4; CHO-mDLL4

PIGF = biological target: T10, PIGF (UniProt P49763-2 21-149, limits assumed); assay: solid phase binding ELISA on coated PIGF (Example 12.8)
T10 construct: also called placenta growth factor
T10 sequence (looked up): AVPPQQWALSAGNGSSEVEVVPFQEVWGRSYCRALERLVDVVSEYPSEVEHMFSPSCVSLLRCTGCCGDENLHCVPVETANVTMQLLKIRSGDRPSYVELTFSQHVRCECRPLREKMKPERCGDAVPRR
Procedure: (§5) Binding to VEGFB, VEGFC, VEGFD and PIGF is assessed via a solid phase binding ELISA. […] Wells are blocked with a casein solution (1% in PBS). […] As positive controls serial dilutions of the appropriate receptors are taken along and detected with horseradish peroxidase (HRP)-conjugated goat anti-human IgG, Fc specific antibody (Jackson Immuno Research Laboratories Inc., West Grove, Pa., USA) and a subsequent enzymatic reaction in the presence of the substrate TMB (3,3′,5,5′-tetramentylbenzidine) (Pierce, Rockford, Ill., USA).

VEGFB = biological target: T11, VEGFB (UniProt P49765-2 22-188, limits assumed); assay: binding ELISA on coated VEGFB (Example 12.8), OD 450 nm
T11 sequence (looked up): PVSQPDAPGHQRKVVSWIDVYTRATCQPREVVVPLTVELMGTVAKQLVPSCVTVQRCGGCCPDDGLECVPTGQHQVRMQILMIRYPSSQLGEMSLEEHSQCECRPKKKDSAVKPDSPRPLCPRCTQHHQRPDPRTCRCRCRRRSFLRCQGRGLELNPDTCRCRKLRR
Procedure: as §5

VEGFC = biological target: T12, VEGFC (UniProt P49767 103-227, limits assumed); assay: binding ELISA on coated VEGFC (Example 12.8), OD 450 nm
T12 sequence (looked up): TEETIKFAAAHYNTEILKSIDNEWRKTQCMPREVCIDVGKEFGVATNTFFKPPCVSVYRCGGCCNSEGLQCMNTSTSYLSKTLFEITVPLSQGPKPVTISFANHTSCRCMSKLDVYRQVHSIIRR
Procedure: as §5

VEGFD = biological target: T13, VEGFD (UniProt O43915 93-201, limits assumed); assay: binding ELISA on coated VEGFD (Example 12.8), OD 450 nm
T13 sequence (looked up): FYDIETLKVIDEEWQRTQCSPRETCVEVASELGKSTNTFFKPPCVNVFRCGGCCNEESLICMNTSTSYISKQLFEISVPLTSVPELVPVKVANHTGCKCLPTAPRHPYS
Procedure: as §5

B1: DLLBII104G01 (VHH)
VHH: EVQLVESGGGLVQAGGSLRLSCAASGFTFDDYAIGWFRQAPGKEREGVSCISSSDGSTYYADSVKGRFTISSDNAKNTVYLQMNSLKPEDTAVYYCATAWCDSSWYRSFVGYWGQGTQVTVSS
notes: also called 104G1
[1]
  IC50, DLL4/Notch1 reporter assay: 964 nM
Recombinant human DLL4 [2]
  IC50 (nM) (experiment 1), DLL4 proliferation assay (HUVEC): 103 nM
  IC50 (nM) (experiment 2), DLL4 proliferation assay (HUVEC): 32 nM
Recombinant human DLL4 [3]
  EC50: 8.4 nM
Recombinant human DLL4 [4]
  koff: 0.0012 s⁻¹
[5]
  IC50: 2.5 nM
[6]
  EC50 (read off the curve): ~4 nM
[7]
  EC50 (read off the curve): ~5 nM
Recombinant human DLL4 [8]
  IC50: 1.1 nM
[9]
  % inh: 94%
[10]
  % inh: 86%
Recombinant mouse DLL4
  binding result: no binding (tested: 5e-7 M)
Human DLL1
  binding result: no binding (tested: 5e-7 M)
Human Jagged-1
  binding result: no binding (tested: 5e-7 M)
Recombinant human DLL4 [11]
  Kd: 4 to 24 nM
  koff: 0.0006 to 0.003 s⁻¹
  kon: 120000 to 150000 M⁻¹ s⁻¹
[12]
  IC50 (read off the curve): ~60 nM

B2: human Notch1/Fc chimera (R&D Systems) (Fc fusion, UniProt P46531 19-526, looked up, not shown: a dimerising Fc or GST)
chain: ARGPRCSQPGETCLNGGKCEAANGTEACVCGGAFVGPRCQDPNPCLSTPCKNAGTCHVVDRRGVADYACSCALGFSGPLCLTPLDNACLTNPCRNGGTCDLLTLTEYKCRCPPGWSGKSCQQADPCASNPCANGGQCLPFEASYICHCPPSFHGPTCRQDVNECGQKPGLCRHGGTCHNEVGSYRCVCRATHTGPNCERPYVPCSPSPCQNGGTCRPTGDVTHECACLPGFTGQNCEENIDDCPGNNCKNGGACVDGVNTYNCRCPPEWTGQYCTEDVDECQLMPNACQNGGTCHNTHGGYNCVCVNGWTGEDCSENIDDCASAACFHGATCHDRVASFYCECPHGRTGLLCHLNDACISNPCNEGSNCDTNPVNGKAICTCPSGYTGPACSQDVDECSLGANPCEHAGKCINTLGSFECQCLQGYTGPRCEIDVNECVSNPCQNDATCLDQIGEFQCICMPGYEGVHCEVNTDECASSPCLHNGRCLDKINEFQCECPTGFTGHLCQ
modifications: Alexa-647 labelled in the FMAT assay
notes: also called hNotch1-Fc; rhNotch1/Fc
[13]
  IC50 (read off the curve): ~4 nM
[14]
  IC50 (read off the curve): ~2 nM

B3: VEGFBII010 (VHH)
chain: EVQLVESGGGLVQTGDSLRLSCEVSGRTFSSYSMGWFRQAQGKEREFVVAISKGGYKYDSVSLEGRFTISKDNAKNTVYLQINSLKPEDTAVYYCASSRAYGSSRLRLADTYEYWGQGTQVTVSSGGGGSGGGGSGGGGSGGGGSGGGGSGGGGSGGGGSEVQLVESGGGLVQTGDSLRLSCEVSGRTFSSYSMGWFRQAQGKEREFVVAISKGGYKYDSVSLEGRFTISKDNAKNTVYLQINSLKPEDTAVYYCASSRAYGSSRLRLADTYEYWGQGTQVTVSS
notes: homodimeric bivalent VHH; also called VEGFBII23B04-35GS-23B04
PIGF
  binding result: no binding (tested: about 5e-7 M)
VEGFB
  binding result: no binding (tested: 5e-7 M)
VEGFC
  binding result: no binding (tested: 5e-7 M)
VEGFD
  binding result: no binding (tested: 5e-7 M)
